# Source: patent EP1287147B1
# Legend:
# [1] = molecular target: human CD3 (CD3 epsilon of the T-cell receptor complex) on Jurkat cells (human) (UniProt P07766); assay: competition with 125I-UCHT1 tracer on Jurkat cells; competitor at 1 nM
# [2] = molecular target: human CD3 (CD3 epsilon of the T-cell receptor complex) on Jurkat cells (human) (UniProt P07766); assay: competition with 125I-UCHT1 tracer on Jurkat cells; competitor at 100 nM
# [3] = molecular target: human CD3 (CD3 epsilon of the T-cell receptor complex) on Jurkat cells (human) (UniProt P07766); assay: cell-based or functional assay
% of 125I-UCHT1 tracer bound (% of tracer bound without competitor) [1],% of 125I-UCHT1 tracer bound (% of tracer bound without competitor) [2],Substance,ratio of IC50 of sFv-DT390 to IC50 of UCHT1-CRM9 [3]
80,0,"UCHT1 monoclonal antibody (murine anti-human CD3, IgG1)",–
–,–,"sFv-DT390 (DT390-sFv(UCHT1'), anti-CD3 single-chain immunotoxin with truncated diphtheria toxin)",16 fold
80,0,"scUCHT1 (divalent chimeric anti-human CD3 single chain antibody, UCHT1 VL-linker-VH fused to human IgM Fc CH2-CH4) (Fc fusion)",–
